Experimental data reported in PMC7617879 (2022).

Target: MMP-14 catalytic domain (Homo sapiens, UniProt P50281)
Experiment: enzyme inhibition assay

B1: N-TIMP2D-Cys-PEG N-terminal domain (protein)
chain: CSCSPVHPQQAFCNADVVIRAKAVSEKEVDSGNDIYGNPIKRIQYEIKQIKMFKGPEKDIEFIYTAPSSAVCGVSLDVGGKKEYLIAGKAEGDGKMHITLCDFIVPWDTLSTTQKKSLNHRYQMGC
modifications: PEGylated
Ki: 0.18 nM
